Measured values reported in paper PMC5498027.

What was measured:
[1] = molecular target: taxol-stabilized microtubules polymerized from bovine brain tubulin (bovine) (UniProt Q6B856)
[2] = molecular target: taxol-stabilized microtubules polymerized from bovine brain tubulin (bovine) (UniProt Q6B856); assay: co-sedimentation; microtubule pelleting assay as with ATP but with 5 mM AMPPNP: 1 uM Kif5A, tubulin 0-8 uM (WT) or 0-20 uM (mutants), 20 uM taxol, room temperature 15 min; fraction Kif5A bound by western blot densitometry

human Kif5A, first 560 amino acids, wild type, fused to EGFP and a C-terminal 6xHIS tag, sequence (Q12840 1-560): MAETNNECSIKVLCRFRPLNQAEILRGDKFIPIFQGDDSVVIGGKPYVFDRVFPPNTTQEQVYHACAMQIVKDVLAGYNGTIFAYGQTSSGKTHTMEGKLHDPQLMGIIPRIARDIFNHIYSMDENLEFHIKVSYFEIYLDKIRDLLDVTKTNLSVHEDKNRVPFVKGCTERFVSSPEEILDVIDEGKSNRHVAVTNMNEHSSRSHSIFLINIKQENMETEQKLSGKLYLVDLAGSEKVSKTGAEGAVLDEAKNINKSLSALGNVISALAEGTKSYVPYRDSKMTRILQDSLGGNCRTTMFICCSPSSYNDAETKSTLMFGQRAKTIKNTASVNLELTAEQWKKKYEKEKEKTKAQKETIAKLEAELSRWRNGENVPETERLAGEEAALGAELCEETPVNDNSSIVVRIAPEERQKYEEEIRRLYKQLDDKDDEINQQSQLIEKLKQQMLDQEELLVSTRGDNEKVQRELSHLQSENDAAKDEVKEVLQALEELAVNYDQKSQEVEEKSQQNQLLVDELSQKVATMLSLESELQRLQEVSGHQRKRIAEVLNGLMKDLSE

Substance	-fold increase of the ATPase rate by MTs (MT-stimulated over basal; malachite green phosphate assay, microtubules from 2 uM tubulin) [1] [fold]	percent bound at saturation [2] [%]
human Kif5A, first 560 amino acids, E251K, fused to EGFP and a C-terminal 6xHIS tag (from UniProt Q12840 1-560) (domain or fragment)	6.2	
human Kif5A, first 560 amino acids, M198T, fused to EGFP and a C-terminal 6xHIS tag (from UniProt Q12840 1-560) (domain or fragment)	42.6	
human Kif5A, first 560 amino acids, R204Q, fused to EGFP and a C-terminal 6xHIS tag (from UniProt Q12840 1-560) (domain or fragment)	10.6	
human Kif5A, first 560 amino acids, S202N, fused to EGFP and a C-terminal 6xHIS tag (from UniProt Q12840 1-560) (domain or fragment)	5.4	
human Kif5A, first 560 amino acids, S203C, fused to EGFP and a C-terminal 6xHIS tag (from UniProt Q12840 1-560) (domain or fragment)	23.5	
human Kif5A, first 560 amino acids, wild type, fused to EGFP and a C-terminal 6xHIS tag (from UniProt Q12840 1-560) (domain or fragment)	33.2	100
